From article PMC11147780, “Vaccination induces broadly neutralizing antibody precursors to HIV gp41” (Nature Immunology, 2024) come the findings set out here.

T1: T117v2 (designed scaffold T117v2 with HIV-1 …)
T1 construct: also called T117v2 scaffold; source: FreeStyle 293F, purified (IMAC, SEC)
T1 chain: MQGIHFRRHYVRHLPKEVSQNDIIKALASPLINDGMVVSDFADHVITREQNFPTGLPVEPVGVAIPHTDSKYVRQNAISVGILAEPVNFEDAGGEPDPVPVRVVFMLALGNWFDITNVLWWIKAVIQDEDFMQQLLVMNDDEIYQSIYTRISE

T2: 10E8-GT4 (synthetic construct (T117-based HIV-1 …))
T2 construct: source: FreeStyle 293F, purified (IMAC, SEC)
T2 chain: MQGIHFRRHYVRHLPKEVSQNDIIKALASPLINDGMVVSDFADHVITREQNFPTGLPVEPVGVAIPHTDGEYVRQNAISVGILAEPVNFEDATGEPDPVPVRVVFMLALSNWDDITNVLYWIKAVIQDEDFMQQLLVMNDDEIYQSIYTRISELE

T3: 10E8-B1 epitope scaffold (synthetic construct (resurfaced …))
T3 chain: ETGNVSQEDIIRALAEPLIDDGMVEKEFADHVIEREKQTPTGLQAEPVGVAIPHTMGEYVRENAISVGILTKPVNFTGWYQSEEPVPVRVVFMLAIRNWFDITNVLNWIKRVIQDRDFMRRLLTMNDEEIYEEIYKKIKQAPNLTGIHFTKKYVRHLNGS

T4: 10E8-GT10.2 epitope scaffold (designed scaffold 10E8-GT10.2 with …, N-linked glycosylation sites added (positions not given))
T4 chain: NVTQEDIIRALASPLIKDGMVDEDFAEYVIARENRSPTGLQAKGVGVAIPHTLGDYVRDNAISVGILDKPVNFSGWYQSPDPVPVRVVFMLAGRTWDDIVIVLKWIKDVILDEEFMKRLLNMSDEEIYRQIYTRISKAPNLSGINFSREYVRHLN

T5: 10E8-GT10.1 epitope scaffold (synthetic construct, circularly …, N-linked glycosylation sites added (positions not given))
T5 chain: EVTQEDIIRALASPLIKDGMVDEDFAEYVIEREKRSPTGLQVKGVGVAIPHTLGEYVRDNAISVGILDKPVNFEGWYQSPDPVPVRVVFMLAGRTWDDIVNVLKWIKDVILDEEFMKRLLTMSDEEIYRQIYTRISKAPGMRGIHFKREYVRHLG

T6: 10E8-GT12 epitope scaffold (synthetic construct (HIV-1 MPER graft …, N-linked glycosylation sites added (positions not given)))
T6 chain: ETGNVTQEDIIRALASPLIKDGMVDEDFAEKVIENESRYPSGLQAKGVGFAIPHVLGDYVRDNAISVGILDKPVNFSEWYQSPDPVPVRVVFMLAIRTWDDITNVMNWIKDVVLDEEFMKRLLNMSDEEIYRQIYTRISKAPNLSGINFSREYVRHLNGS

B1: 10E8 (antibody, V domains shown)
VH: EVQLVESGGGLVKPGGSLRLSCSASGFDFDNAWMTWVRQPPGKGLEWVGRITGPGEGWSVDYAAPVEGRFTISRLNSINFLYLEMNNLRMEDSGLYFCARTGKYYDFWSGYPPGEEYFQDWGRGTLVTVSS
VL: SYELTQETGVSVALGRTVTITCRGDSLRSHYASWYQKKPGQAPILLFYGKNNRPSGVPDRFSGSASGNRASLTISGAQAEDDAEYYCSSRDKSGSRLSVFGGGTKLTVL
notes: also called mature 10E8; 10E8 bnAb; source: FreeStyle 293F or ExpiCHO, purified (protein A)
B2: 10E8-iGL2 (antibody, V domains shown)
VH: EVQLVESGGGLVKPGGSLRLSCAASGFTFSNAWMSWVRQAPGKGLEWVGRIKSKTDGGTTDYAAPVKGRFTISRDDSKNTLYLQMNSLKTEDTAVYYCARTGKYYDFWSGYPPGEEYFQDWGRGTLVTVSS
VL: SSELTQDPAVSVALGQTVRITCQGDSLRSYYASWYQQKPGQAPVLVIYGKNNRPSGIPDRFSGSSSGNTASLTITGAQAEDEADYYCNSRDSSGNHLWVFGGGTKLTVL
notes: source: FreeStyle 293F or ExpiCHO, purified (protein A)
B3: 10E8-iGL1 (antibody, V domains shown)
VH: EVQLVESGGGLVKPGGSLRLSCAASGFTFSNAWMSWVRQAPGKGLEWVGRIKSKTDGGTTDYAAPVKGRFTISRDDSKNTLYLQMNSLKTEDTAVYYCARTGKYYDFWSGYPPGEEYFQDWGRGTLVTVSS
VL: B2 VL with N88S, S92K, N95S, H96R, W98S
notes: as for B2
B4: NHP-10E8_MPER-GT10v55_W3-20 (antibody, V domains shown)
VH: EVQLVESGGGLVQPGGSLRLSCAASGFSFSNYWMSWVRQAPGKGLEWVGFIKNKADGGTAAYAESVKGRFTISRDDSKNTLYLQMNSLKTEDTAVYFCARDLGRYNFWSAFYSQNRFDVWGPGVLVTVSS
VL: SYEVTQPPSVSVSPGQMARITCGGDNLGSKYVHWYQQKPAQAPVMVMYDDSERPSGIPERFSGSKSGNTATLTISGVEAGDEADYYCQVWDSSSDHPLFGGGTRLTV
B5: NHP-10E8_MPER-GT10v55_W21-12 (antibody, V domains shown)
VH: EVQLVESGGGLVQPGGSLRLSCAASGFTFSSYGMHWVRQAPGKGLEWVAVIWYDGSKKYYADSVKDRFTISRDNSKNMLYLQMNNLKFEDTAVYYCARVAPDYDFWSGSYTYSGLDSWGQGVVVTVSS
VL: DIQMTQSPSSLSASVGDTVTITCRASQSISSWLDWYQQKPGKAPKLLIYKASNLQSGVPSRFSGSGSGTHFTLTISSLQPEDFATYYCLQYNSSPYSFGQGTKVEIK
B6: NHP-10E8_MPER-GT10v55_W26-05 (antibody, V domains shown)
VH: EVQLVESGGGLVQPGGSLRLSCAASGFTFSNYWMNWVRQAPGKGLEWVGFIKNKADGGTAAYAESVKGRFTISRDDSKNTLYLQMNSLKTEDTAVYYCTREATFYNFWSGYYTPQYGLDSWGQGVVVTVSS
VL: QPVLTQPTSLSASPGASARLTCTLSSGISVGSYRIFWYQQKPGSPPRYLLNYHTDSDKHQGSGVPSRFSGSKDASANAGILLISGLQSEDEADYYCMIWHNNAHGLFGGGTRLTV
B7: NHP-10E8_MPER-GT10v55_W26-06 (antibody, V domains shown)
VH: QVQLQESGPGLVKPSETLSLTCAVSGDSISSGYYYWSWIRQPPGKGLEWIGYITYSGSTSYNPSLKSQVTISRDTAKNQFSLKLSSVTAADTAVYYCARGGTYYNFWSDGSPQYNRFGFWGPGVPVTVSS
VL: DIVMTQTPLSLPVTPGEPASISCRSSQSLLHSEDGNTYLDWYLQKPGQSPQLLIYEVSNRASGVPDRFSGSGSDTDFTLKISRVEAEDVGVYYCMQGLEFPLTFGGGTKVELK
B8: NHP-10E8_MPER-GT10v55_W21-19 (antibody, V domains shown)
VH: QVQLQESGPGLLKPSDTLSLICAVSGGSISGGYGWGWIRQPPGKGLEWIGSIYSSNGNTYYNPSLKSRVTISTDTSKNQFSLKLNSVTAADTAVYYCGSGGLSYSFWSGYQSLHRLHVWGPGVLVTVSS
VL: B7 VL with H31D, N59K, L102F, G106P, V110L, E111D, L112I
B9: NHP-10E8_MPER-GT10v55_W21-04 (antibody, V domains shown)
VH: EVQLVESGGGLVQPGGSLRLSCVASGFTFSDYGFDWVRQAPGKGLEWVGFIRSKDYGGSTEYAASVKGRFTISRDDSKNTAYLQMTSLKAEDTAVYFCTRDLGFYNFWTGYYEVNRFDVWGAGVLVTVSS
VL: QPVLTQPTSLSASPGASARLTCTLRSGISVGSYRIFWYQQKPGSPPRYLLNYHTDSDNHQGSGVPSRFSGSKDASANAGILLISGLQSDDEADYYCMIWHNNACFFGGGTRLTV
B10: NHP-10E8_MPER-GT10v55_W26-03 (antibody, V domains shown)
VH: QVQLQESGPGVVKPSETLSLTCAVSGGSISDNYWWTWIRQPPGKGLEWIGYIYGSNTSTNYNPSLKSRVTISKDTSKNQFSLKLSSVTAADTAVYYCARDREFYNFWSGYYGAYGLDSWGQGVVVTVSS
VL: QPVLTQPTSLSASPGASARLSCTLSSGINVGSYSIYWYQQKPGSPPRYLLYYDSDSNKHQGSGVPSRFSGSNDASANAGLLLISGLQSEDEADYYCAIWHSSTYYIFGGGTRLTV
B11: MPER-068 (antibody, V domains shown)
VH: QVQLQESGPGLVKPSETLSLTCTVSGGSISSYYWSWIRQPPGKGLEWIGYIYYSGSTNYNPSLKSRVTISVDTSKNQFSLKLSSVTAADTAVYYCARSPSPYYDFWSGYFQETNWFDPWGQGTLVTVSS
VL: not shown
B12: MPER-053 (antibody, V domains shown)
VH: EVQLVESGGGLVQPGRSLRLSCTASGFTFGDYAMSWFRQAPGKGLEWVGFIRSKAYGGTTEYAASVKGRFTISRDDSKSIAYLQMNSLKTEDTAVYYCTREGAYYDFWSGYLTKVYGMDVWGQGTTVTVSS
VL: not shown
B13: MPER-055 (antibody, V domains shown)
VH: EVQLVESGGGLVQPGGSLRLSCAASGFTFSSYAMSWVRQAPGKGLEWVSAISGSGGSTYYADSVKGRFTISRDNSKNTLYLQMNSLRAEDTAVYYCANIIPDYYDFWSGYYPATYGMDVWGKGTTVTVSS
VL: DIQMTQSPSSLSASVGDRVTITCRASQGIRNDLGWYQQKPGKAPKRLIYAASSLQSGVPSRFSGSGSGTEFTLTISSLQPEDFATYYCLQHNSYPLSFGGGTKVEIK
B14: MPER-063 (antibody, V domains shown)
VH: QVQLVQSGAEVKKPGSSVKVSCKASGGTFSSYAISWVRQAPGQGLEWMGGIIPIFGTANYAQKFQGRVTITADESTSTAYMELSSLRSEDTAVYYCARGGTHYDFWSGYSDYYYGMDVWGKGTTVTVSS
VL: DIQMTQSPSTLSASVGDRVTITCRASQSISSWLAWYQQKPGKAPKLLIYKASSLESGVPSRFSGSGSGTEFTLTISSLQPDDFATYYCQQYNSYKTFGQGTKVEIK
B15: MPER-072 (antibody, V domains shown)
VH: QVQLQESGSGLVKPSQTLSLTCAVSGGSISSGGYSWSWIRQPPGKGLEWIGYIYHSGSTYYNPSLKSRVTISVDRSKNQFSLKLSSVTAADTAVYYCARAGHNYDFWSGYYPVGGAFDIWGQGTMVTVSS
VL: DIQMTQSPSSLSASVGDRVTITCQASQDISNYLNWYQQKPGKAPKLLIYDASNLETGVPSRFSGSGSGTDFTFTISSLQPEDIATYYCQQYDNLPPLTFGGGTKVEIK
B16: MPER-070 (antibody, V domains shown)
VH: QVQLQESGPGLVKPSETLSLTCTVSGGSISSSSYYWGWIRQPPGKGLEWIGSIYYSGSTYYNPSLKSRVTISVDTSKNQFSLKLSSVTAADTAVYYCARHHPHAYDFWSGYYSERYYFDYWGQGTLVTVSS
VL: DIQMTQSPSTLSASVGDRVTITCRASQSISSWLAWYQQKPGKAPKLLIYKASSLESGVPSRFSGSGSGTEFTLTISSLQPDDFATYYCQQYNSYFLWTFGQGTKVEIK
B17: MPER-073 (antibody, V domains shown)
VH: QVQLQESGPGLVKPSQTLSLTCTVSGGSISSGGYYWSWIRQHPGKGLEWIGYIYYSGSTYYNPSLKSRVTISVDTSKNQFSLKLSSVTAADTAVYYCARDCAVYDFWSGYGPGGWFDPWGQGTLVTVSS
VL: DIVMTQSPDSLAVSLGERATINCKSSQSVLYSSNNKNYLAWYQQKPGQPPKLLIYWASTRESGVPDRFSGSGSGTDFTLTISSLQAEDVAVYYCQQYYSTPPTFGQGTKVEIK
B18: MPER-071 (antibody, V domains shown)
VH: QVQLVQSGAEVKKPGASVKVSCKASGYTFTSYDINWVRQATGQGLEWMGWMNPNSGNTGYAQKFQGRVTMTRNTSISTAYMELSSLRSEDTAVYYCARGITYYDFWSGYYPTPYYFDYWGQGTLVTVSS
VL: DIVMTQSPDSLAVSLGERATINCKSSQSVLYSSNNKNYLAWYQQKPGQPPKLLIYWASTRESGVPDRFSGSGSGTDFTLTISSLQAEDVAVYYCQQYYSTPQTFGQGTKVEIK
B19: MPER_HuGL-106 (MPER-102) (antibody, V domains shown)
VH: EVQLVESGGGLVQPGRSLRLSCTASGFTFGDYAMSWVRQAPGKGLEWVGFIRSKAYGGTTEYAASVKGRFTISRDDSKSIAYLQMNSLKTEDTAVYYCTRDKVGYDFWSGDYYYYGMDVWGQGTTVTVSS
VL: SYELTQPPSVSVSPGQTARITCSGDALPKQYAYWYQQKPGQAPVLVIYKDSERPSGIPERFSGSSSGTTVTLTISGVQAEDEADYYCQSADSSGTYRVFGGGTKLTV

Residue numbers refer to the chain shown, from its start.

The target in one assay is T1, T117v2. The assay is described as follows: SPR; ProteOn XPR36, GLC sensor chip; antibody as ligand, monomeric scaffold as analyte; monovalent KD. The conditions noted are these: both partners purified. Background: In SPR one partner is held on a chip, and binding of the other changes the refractive index at the surface.
A word on the Kd: it is a measure of binding affinity in units of concentration. For the molecule B1, binding was put at a Kd of 0.00094 µM.

As a reminder, the koff is a measure of how fast the partners let go of each other. As a reminder, the kon is the rate constant with which the complex forms. A high value points to fast association. As to B2, binding was characterised by a dissociation constant (Kd) of 17 µM, the koff was 0.11 s⁻¹ and the association rate constant (kon) amounted to 6600 M⁻¹ s⁻¹.

A further assay concerns the target T2, 10E8-GT4. The assay is described as above. The conditions noted are these: both partners purified.
In the case of B1, the Kd was found to be 0.0095 µM.

Turning to B3, the affinity, expressed as Kd, was 0.25 µM; the off-rate (koff) came to 25 s⁻¹; the kon is 1e+08 M⁻¹ s⁻¹.

A further assay has as its target T3, 10E8-B1 epitope scaffold.
Experiment: not given
Conditions: not given
B4 yielded a Kd of 4.27 µM.

In the case of B5, the affinity, expressed as Kd, was 1.01 µM.

B6 came in with a dissociation constant (Kd) of 9.68 µM. This Kd lies about 9.6-fold higher than the previous one.

Turning to B7, binding was put at a Kd of 6.42 µM.

Turning to B8, the dissociation constant (Kd) is 0.415 µM.

B9 returned a Kd of 22.9 µM.

Molecule B10 displayed a Kd of 0.84 µM. Compared with the last molecule, the Kd is about 27-fold lower.

The next assay has as its target T4, 10E8-GT10.2 epitope scaffold.
Experiment: not given
Conditions: not given
Molecule B11 showed a dissociation constant (Kd) of 2.1 µM.

In turn, B12 displayed an equilibrium dissociation constant (Kd) of 7.9 µM.

The molecule B13 registered a Kd of 22 µM.

The molecule B14 gave a Kd of 6.6 µM.

Turning to B4, the Kd amounted to 0.00482 µM.

Consider B5, for which the Kd came to 0.000842 µM. Against the preceding molecule, the Kd is about 5.7-fold lower.

For the molecule B6, the affinity, expressed as Kd, was 0.263 µM.

B7 gave a Kd of 0.00145 µM.

For the molecule B8, the dissociation constant Kd was 0.000579 µM.

For the molecule B15, the Kd turned out to be 16 µM. Against the preceding molecule, the Kd is about 28000-fold higher.

Molecule B16 gave a Kd of 13 µM.

In the case of B9, binding was characterised by a dissociation constant (Kd) of 0.000115 µM.

B10: the equilibrium dissociation constant (Kd) was 0.000178 µM.

B17 displayed a Kd of 20 µM.

The target of a further assay is T5, 10E8-GT10.1 epitope scaffold.
Experiment: not given
Conditions: not given
Consider B11, for which the Kd turned out to be 0.7 µM.

B12 showed a dissociation constant Kd of 11 µM.

Turning to B13, binding was characterised by a dissociation constant (Kd) of 16 µM.

On to B14, for which binding was put at a Kd of 4 µM. Against the preceding molecule, the Kd is about 4-fold lower.

Molecule B15 registered an equilibrium dissociation constant (Kd) of 13 µM.

Take B18: the dissociation constant Kd was 6.4 µM.

For B16, binding was put at a Kd of 4.1 µM. Compared with the last molecule, the Kd is about 1.6-fold lower.

Molecule B17 yielded a Kd of 7.3 µM.

The target in another assay is T6, 10E8-GT12 epitope scaffold.
Experiment: not given
Conditions: not given
B19 showed a Kd of 1.14 µM.
